From the supplement of paper PMC5998384

Assays:
HeLa Kyoto [1] = experiment: solubility change mitosis vs G1/S (difference of NP-40 vs SDS log2 ratios) (log2 ratio difference); higher = more soluble in mitosis
HeLa Kyoto [2] = experiment: solubility in G1/S (NP-40 vs SDS abundance) (log2 ratio); higher = more soluble; conditions: cell cycle stage: G1/S
HeLa Kyoto [3] = experiment: thermal stability score vs G1/S (z-score of summed log2 fold changes over temperatures); higher = more thermally stable than in G1/S
[4] = cell cycle stage: early G1 (4.5 h after nocodazole release)
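For solubility change mitosis vs G1/S (difference of NP-40 vs SDS log2 ratios) in this document: synchronized HeLa Kyoto cells (double thymidine block for G1/S, nocodazole release for mitosis), protein amounts in NP-40 versus SDS lysates quantified by mass spectrometry, three biological replicates.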
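For solubility in G1/S (NP-40 vs SDS abundance) in this document: HeLa Kyoto cells arrested at G1/S by double thymidine block, proteins quantified by TMT10plex mass spectrometry in mild NP-40 versus SDS extracts, three biological replicates.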
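For thermal stability score vs G1/S (z-score of summed log2 fold changes over temperatures) in this document: synchronized HeLa Kyoto cells, proteins quantified by TMT10plex mass spectrometry, three biological replicates, mitosis taken 0.5 h after nocodazole release, G1/S directly after double thymidine block.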

Sequence	solubility change mitosis (log2) (HeLa Kyoto [1])	solubility in G1/S (log2) (HeLa Kyoto [2])	thermal stability score (HeLa Kyoto [3]; [4])	thermal stability score (HeLa Kyoto [3]; cell cycle stage: mitosis)
MQRAAALVRRGCGPRTPSSWGRSQSSAAAEASAVLKVRPERSRRERILTLESMNPQVKAVEYAVRGPIVLKAGEIELELQRGIKKPFTEVIRANIGDAQAMGQQPITFLRQVMALCTYPNLLDSPSFPEDAKKRARRILQACGGNSLGSYSASQGVNCIREDVAAYITRRDGGVPADPDNIYLTTGASDGISTILKILVSGGGKSRTGVMIPIPQYPLYSAVISELDAIQVNYYLDEENCWALNVNELRRAVQEAKDHCDPKVLCIINPGNPTGQVQSRKCIEDVIHFAWEEKLFLLADEVYQDNVYSPDCRFHSFKKVLYEMGPEYSSNVELASFHSTSKGYMGECGYRGGYMEVINLHPEIKGQLVKLLSVRLCPPVSGQAAMDIVVNPPVAGEESFEQFSREKESVLGNLAKKAKLTEDLFNQVPGIHCNPLQGAMYAFPRIFIPAKAVEAAQAHQMAPDMFYCMKLLEETGICVVPGSGFGQREGTYHFRMTILPPVEKLKTVLQKVKDFHINFLEKYA [GPT2]	0.017	0.0799	-0.2	-0.215
MQSKVTGNMPTQSLLMYMDGPEVIGSSLGSPMEMEDALSMKGTAVVPFRATQEKNVIQIEGYMPLDCMFCSQTFTHSEDLNKHVLMQHRPTLCEPAVLRVEAEYLSPLDKSQVRTEPPKEKNCKENEFSCEVCGQTFRVAFDVEIHMRTHKDSFTYGCNMCGRRFKEPWFLKNHMRTHNGKSGARSKLQQGLESSPATINEVVQVHAAESISSPYKICMVCGFLFPNKESLIEHRKVHTKKTAFGTSSAQTDSPQGGMPSSREDFLQLFNLRPKSHPETGKKPVRCIPQLDPFTTFQAWQLATKGKVAICQEVKESGQEGSTDNDDSSSEKELGETNKGSCAGLSQEKEKCKHSHGEAPSVDADPKLPSSKEKPTHCSECGKAFRTYHQLVLHSRVHKKDRRAGAESPTMSVDGRQPGTCSPDLAAPLDENGAVDRGEGGSEDGSEDGLPEGIHLDKNDDGGKIKHLTSSRECSYCGKFFRSNYYLNIHLRTHTGEKPYKCEFCEYAAAQKTSLRYHLERHHKEKQTDVAAEVKNDGKNQDTEDALLTADSAQTKNLKRFFDGAKDVTGSPPAKQLKEMPSVFQNVLGSAVLSPAHKDTQDFHKNAADDSADKVNKNPTPAYLDLLKKRSAVETQANNLICRTKADVTPPPDGSTTHNLEVSPKEKQTETAADCRYRPSVDCHEKPLNLSVGALHNCPAISLSKSLIPSITCPFCTFKTFYPEVLMMHQRLEHKYNPDVHKNCRNKSLLRSRRTGCPPALLGKDVPPLSSFCKPKPKSAFPAQSKSLPSAKGKQSPPGPGKAPLTSGIDSSTLAPSNLKSHRPQQNVGVQGAATRQQQSEMFPKTSVSPAPDKTKRPETKLKPLPVAPSQPTLGSSNINGSIDYPAKNDSPWAPPGRDYFCNRSASNTAAEFGEPLPKRLKSSVVALDVDQPGANYRRGYDLPKYHMVRGITSLLPQDCVYPSQALPPKPRFLSSSEVDSPNVLTVQKPYGGSGPLYTCVPAGSPASSSTLEGKRPVSYQHLSNSMAQKRNYENFIGNAHYRPNDKKT [ZNF217]	0.0502	-0.201	-1.13	-0.808
MSDILRELLCVSEKAANIARACRQQEALFQLLIEEKKEGEKNKKFAVDFKTLADVLVQEVIKQNMENKFPGLEKNIFGEESNEFTNDWGEKITLRLCSTEEETAELLSKVLNGNKVASEALARVVHQDVAFTDPTLDSTEINVPQDILGIWVDPIDSTYQYIKGSADIKSNQGIFPCGLQCVTILIGVYDIQTGVPLMGVINQPFVSRDPNTLRWKGQCYWGLSYMGTNMHSLQLTISRRNGSETHTGNTGSEAAFSPSFSAVISTSEKETIKAALSRVCGDRIFGAAGAGYKSLCVVQGLVDIYIFSEDTTFKWDSCAAHAILRAMGGGIVDLKECLERNPETGLDLPQLVYHVENEGAAGVDRWANKGGLIAYRSRKRLETFLSLLVQNLAPAETHT [INPP1]	-0.114	0.0309	0.000408	-0.083
MSFNLQSSKKLFIFLGKSLFSLLEAMIFALLPKPRKNVAGEIVLITGAGSGLGRLLALQFARLGSVLVLWDINKEGNEETCKMAREAGATRVHAYTCDCSQKEGVYRVADQVKKEVGDVSILINNAGIVTGKKFLDCPDELMEKSFDVNFKAHLWTYKAFLPAMIANDHGHLVCISSSAGLSGVNGLADYCASKFAAFGFAESVFVETFVQKQKGIKTTIVCPFFIKTGMFEGCTTGCPSLLPILEPKYAVEKIVEAILQEKMYLYMPKLLYFMMFLKSFLPLKTGLLIADYLGILHAMDGFVDQKKKL [SDR16C5]	-0.0428	-0.478	0.864	-0.987
